Data: article PMC9482650, “Quantitative fragmentomics allow affinity mapping of interactomes” (Nature Communications, 2022)

Experiments:
Test in all cases: holdup assay
Design in all cases: key: below the threshold = too weak to quantify, mostly under pKd 3.1 to 4
Inadl_3, Q8NI35 = molecular target: Inadl_3, Q8NI35
DFNB31_3, Q9P202 = molecular target: T1, DFNB31_3, Q9P202
T1 sequence (Q9P202 811-907, limits assumed, looked up): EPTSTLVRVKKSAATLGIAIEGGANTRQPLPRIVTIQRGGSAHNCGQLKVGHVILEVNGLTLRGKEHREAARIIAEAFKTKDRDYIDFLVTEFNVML

SIPA1L2, Q9P2F8 = molecular target: T2, SIPA1L2, Q9P2F8
T2 sequence (Q9P2F8 945-1036, limits assumed, looked up): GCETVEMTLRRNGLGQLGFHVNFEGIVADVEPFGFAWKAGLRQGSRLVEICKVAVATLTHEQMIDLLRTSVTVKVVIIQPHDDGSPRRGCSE

MPDZ_10, O75970 = molecular target: T3, MPDZ_10, O75970
T3 sequence (O75970 1624-1722, limits assumed, looked up): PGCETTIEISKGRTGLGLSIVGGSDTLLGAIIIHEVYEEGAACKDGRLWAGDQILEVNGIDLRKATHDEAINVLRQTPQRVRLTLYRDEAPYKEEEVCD

GRIP1_2, Q9Y3R0 = molecular target: T4, GRIP1_2, Q9Y3R0
T4 sequence (Q9Y3R0 145-248, limits assumed, looked up): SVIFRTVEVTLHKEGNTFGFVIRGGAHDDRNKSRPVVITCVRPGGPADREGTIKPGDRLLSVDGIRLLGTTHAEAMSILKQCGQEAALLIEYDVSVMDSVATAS

LNX1_3, Q8TBB1 = molecular target: LNX1_3, Q8TBB1
MPDZ_12, O75970 = molecular target: T5, MPDZ_12, O75970
T5 sequence (O75970 1857-1958, limits assumed, looked up): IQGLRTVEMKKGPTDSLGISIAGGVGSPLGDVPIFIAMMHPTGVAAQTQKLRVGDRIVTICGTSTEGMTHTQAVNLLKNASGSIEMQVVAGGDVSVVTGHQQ

MAST1, Q9Y2H9 = molecular target: MAST1, Q9Y2H9
IL16_4, Q14005 = molecular target: IL16_4, Q14005
PCLO, Q9Y6V0 = molecular target: T6, PCLO, Q9Y6V0
T6 sequence (Q9Y6V0 4491-4600, limits assumed, looked up): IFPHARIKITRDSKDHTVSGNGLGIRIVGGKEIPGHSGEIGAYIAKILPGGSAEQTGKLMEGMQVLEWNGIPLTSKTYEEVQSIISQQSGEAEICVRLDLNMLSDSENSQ

NHERF3_4, Q5T2W1 = molecular target: T7, NHERF3_4, Q5T2W1
T7 sequence (Q5T2W1 373-468, limits assumed, looked up): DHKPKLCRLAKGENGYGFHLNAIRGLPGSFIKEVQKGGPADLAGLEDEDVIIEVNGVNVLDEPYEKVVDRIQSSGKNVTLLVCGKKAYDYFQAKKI

MAGI2_6, Q86UL8 = molecular target: MAGI2_6, Q86UL8
PARD3B_1, Q8TEW8 = molecular target: T8, PARD3B_1, Q8TEW8
T8 sequence (Q8TEW8 196-299, limits assumed, looked up): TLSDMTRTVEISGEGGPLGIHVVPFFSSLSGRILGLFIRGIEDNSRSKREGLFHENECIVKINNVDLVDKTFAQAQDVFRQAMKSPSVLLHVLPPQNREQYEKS

LAP2, Q96RT1 = molecular target: LAP2, Q96RT1
FRMPD2_1, Q68DX3 = molecular target: FRMPD2_1, Q68DX3
LNX2_3, Q8N448 = molecular target: T9, LNX2_3, Q8N448
T9 sequence (Q8N448 463-564, limits assumed, looked up): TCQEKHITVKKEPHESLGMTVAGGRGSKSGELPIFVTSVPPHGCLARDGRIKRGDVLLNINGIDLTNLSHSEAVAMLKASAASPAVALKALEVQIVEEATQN

DLG4_2, P78352 = molecular target: DLG4_2, P78352
GRIP1_7, Q9Y3R0 = molecular target: T10, GRIP1_7, Q9Y3R0
T10 sequence (Q9Y3R0 999-1096, limits assumed, looked up): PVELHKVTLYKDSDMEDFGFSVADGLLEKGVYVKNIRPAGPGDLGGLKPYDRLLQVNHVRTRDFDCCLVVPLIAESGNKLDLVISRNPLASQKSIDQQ

MAGI2_3, Q86UL8 = molecular target: MAGI2_3, Q86UL8
GRIP2_5, Q9C0E4 = molecular target: GRIP2_5, Q9C0E4
SNTB1, Q13884 = molecular target: T11, SNTB1, Q13884
T11 sequence (Q13884 107-205, limits assumed, looked up): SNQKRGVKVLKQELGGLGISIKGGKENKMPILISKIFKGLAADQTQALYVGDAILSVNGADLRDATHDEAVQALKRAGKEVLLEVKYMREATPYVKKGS

ARHGEF11, O15085 = molecular target: T12, ARHGEF11, O15085
T12 sequence (O15085 42-136, limits assumed, looked up): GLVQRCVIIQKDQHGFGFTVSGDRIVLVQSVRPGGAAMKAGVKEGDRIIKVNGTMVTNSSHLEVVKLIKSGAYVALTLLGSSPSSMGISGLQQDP

IL16_3, Q14005 = molecular target: IL16_3, Q14005
ARHGAP21, Q5T5U3 = molecular target: T13, ARHGAP21, Q5T5U3
T13 sequence (Q5T5U3 45-169, limits assumed, looked up): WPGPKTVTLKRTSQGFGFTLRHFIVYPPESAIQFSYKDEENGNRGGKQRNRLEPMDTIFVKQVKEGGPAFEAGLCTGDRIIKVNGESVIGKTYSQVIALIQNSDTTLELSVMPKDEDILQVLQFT

[1] = modified: phospho on T at position -2 from the C-terminal residue
[2] = plain residues with an end cap or a label only (N-terminal biotin on a linker: ado-ado)

Sequence of IL16_4, Q14005 (Q14005 1229-1329): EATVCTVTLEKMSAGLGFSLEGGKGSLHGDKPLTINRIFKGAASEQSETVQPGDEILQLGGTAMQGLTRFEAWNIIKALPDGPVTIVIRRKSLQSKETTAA
Sequence of FRMPD2_1, Q68DX3 (Q68DX3 770-861): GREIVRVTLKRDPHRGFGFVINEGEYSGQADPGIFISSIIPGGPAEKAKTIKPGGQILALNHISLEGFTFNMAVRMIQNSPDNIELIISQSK
Sequence of DLG4_2, P78352 (P78352 155-259): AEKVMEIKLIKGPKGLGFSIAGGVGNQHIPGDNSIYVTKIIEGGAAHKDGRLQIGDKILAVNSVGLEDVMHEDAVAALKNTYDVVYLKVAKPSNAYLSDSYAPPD
Sequence of MAGI2_6, Q86UL8 (Q86UL8 1141-1229): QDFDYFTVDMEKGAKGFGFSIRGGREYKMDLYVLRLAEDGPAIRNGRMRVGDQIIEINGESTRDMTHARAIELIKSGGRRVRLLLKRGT
Sequence of GRIP2_5, Q9C0E4 (Q9C0E4 544-642): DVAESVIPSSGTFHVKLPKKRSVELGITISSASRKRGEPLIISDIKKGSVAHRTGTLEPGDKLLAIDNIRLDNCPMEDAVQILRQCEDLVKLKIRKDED
Sequence of MAST1, Q9Y2H9 (Q9Y2H9 962-1065): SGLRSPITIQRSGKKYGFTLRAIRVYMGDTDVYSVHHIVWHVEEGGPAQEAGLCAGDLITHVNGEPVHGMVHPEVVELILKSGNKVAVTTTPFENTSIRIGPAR
Sequence of IL16_3, Q14005 (Q14005 1107-1207): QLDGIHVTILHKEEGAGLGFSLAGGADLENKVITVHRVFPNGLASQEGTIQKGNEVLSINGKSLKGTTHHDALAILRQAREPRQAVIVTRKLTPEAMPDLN
Sequence of MAGI2_3, Q86UL8 (Q86UL8 600-682): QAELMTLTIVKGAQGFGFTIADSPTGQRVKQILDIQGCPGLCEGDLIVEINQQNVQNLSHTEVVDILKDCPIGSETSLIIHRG
Sequence of LAP2, Q96RT1 (Q96RT1 other isoform, or with tags, fused parts or gaps): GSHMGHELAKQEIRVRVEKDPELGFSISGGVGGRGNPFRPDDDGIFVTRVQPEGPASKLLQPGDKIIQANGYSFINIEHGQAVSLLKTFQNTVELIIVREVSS
Sequence of LNX1_3, Q8TBB1 (Q8TBB1 500-596): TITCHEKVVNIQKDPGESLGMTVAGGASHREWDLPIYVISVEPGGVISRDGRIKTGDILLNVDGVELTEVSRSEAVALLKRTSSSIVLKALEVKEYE
Sequence of Inadl_3, Q8NI35 (Q8NI35 359-469): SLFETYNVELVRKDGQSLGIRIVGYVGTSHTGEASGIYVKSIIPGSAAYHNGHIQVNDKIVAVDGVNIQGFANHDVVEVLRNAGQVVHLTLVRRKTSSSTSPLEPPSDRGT

B1: HPV16-E6_-2P, P03126 (peptide)
chain: SSRTRRETQL
For B1, the pKd (Inadl_3, Q8NI35; [1]) was “below the threshold”, the pKd (DFNB31_3, Q9P202; [1]) was 3.89 and the pKd (SIPA1L2, Q9P2F8; [1]) was “below the threshold”. The pKd (MPDZ_10, O75970; [1]) was “below the threshold”, the pKd (GRIP1_2, Q9Y3R0; [1]) was “below the threshold” and the pKd (LNX1_3, Q8TBB1; [1]) was “below the threshold”. For the same binder, the pKd (MPDZ_12, O75970; [1]) was “below the threshold”, the pKd (MAST1, Q9Y2H9; [1]) was “below the threshold” and the pKd (IL16_4, Q14005; [1]) was “below the threshold”. For the same binder, the pKd (PCLO, Q9Y6V0; [1]) was “below the threshold”, the pKd (NHERF3_4, Q5T2W1; [1]) was “below the threshold” and the pKd (MAGI2_6, Q86UL8; [1]) was “below the threshold”. For the same binder, the pKd (PARD3B_1, Q8TEW8; [1]) was “below the threshold”, the pKd (LAP2, Q96RT1; [1]) was “below the threshold” and the pKd (FRMPD2_1, Q68DX3; [1]) was “below the threshold”. For the same binder, the pKd (LNX2_3, Q8N448; [1]) was “below the threshold”, the pKd (DLG4_2, P78352; [1]) was “below the threshold” and the pKd (GRIP1_7, Q9Y3R0; [1]) was “below the threshold”. For the same binder, the pKd (MAGI2_3, Q86UL8; [1]) was “below the threshold”, the pKd (GRIP2_5, Q9C0E4; [1]) was “below the threshold” and the pKd (SNTB1, Q13884; [1]) was “below the threshold”. For the same binder, the pKd (ARHGEF11, O15085; [1]) was “below the threshold”, the pKd (IL16_3, Q14005; [1]) was “below the threshold” and the pKd (ARHGAP21, Q5T5U3; [1]) was 4.05.

B2: TRPV6, Q9H1D0 (peptide)
chain: EDGESWEYQI
With B2 the pKd (Inadl_3, Q8NI35; [2]) was 5.33, the pKd (DFNB31_3, Q9P202; [2]) was 3.6 and the pKd (SIPA1L2, Q9P2F8; [2]) was “below the threshold”. For the same binder, the pKd (MPDZ_10, O75970; [2]) was “below the threshold”, the pKd (GRIP1_2, Q9Y3R0; [2]) was “below the threshold” and the pKd (LNX1_3, Q8TBB1; [2]) was 3.52. The pKd (MPDZ_12, O75970; [2]) was “below the threshold”, the pKd (MAST1, Q9Y2H9; [2]) was 4.28 and the pKd (IL16_4, Q14005; [2]) was 3.5. For the same binder, the pKd (PCLO, Q9Y6V0; [2]) was “below the threshold”, the pKd (NHERF3_4, Q5T2W1; [2]) was “below the threshold” and the pKd (MAGI2_6, Q86UL8; [2]) was 3.55. For the same binder, the pKd (PARD3B_1, Q8TEW8; [2]) was 3.85, the pKd (LAP2, Q96RT1; [2]) was “below the threshold” and the pKd (FRMPD2_1, Q68DX3; [2]) was “below the threshold”. The pKd (LNX2_3, Q8N448; [2]) was “below the threshold”, the pKd (DLG4_2, P78352; [2]) was “below the threshold” and the pKd (GRIP1_7, Q9Y3R0; [2]) was “below the threshold”. The pKd (MAGI2_3, Q86UL8; [2]) was “below the threshold”, the pKd (GRIP2_5, Q9C0E4; [2]) was “below the threshold” and the pKd (SNTB1, Q13884; [2]) was “below the threshold”. For the same binder, the pKd (ARHGEF11, O15085; [2]) was 3.63, the pKd (IL16_3, Q14005; [2]) was “below the threshold” and the pKd (ARHGAP21, Q5T5U3; [2]) was 3.57.

B3: ZSCAN30, Q86W11 (peptide)
chain: MQHQRTHTRV
For B3, the pKd (Inadl_3, Q8NI35; [2]) was “below the threshold”, the pKd (DFNB31_3, Q9P202; [2]) was “below the threshold” and the pKd (SIPA1L2, Q9P2F8; [2]) was “below the threshold”. For the same binder, the pKd (MPDZ_10, O75970; [2]) was 3.7, the pKd (GRIP1_2, Q9Y3R0; [2]) was “below the threshold” and the pKd (LNX1_3, Q8TBB1; [2]) was 3.53. For the same binder, the pKd (MPDZ_12, O75970; [2]) was “below the threshold”, the pKd (MAST1, Q9Y2H9; [2]) was 3.54 and the pKd (IL16_4, Q14005; [2]) was “below the threshold”. The pKd (PCLO, Q9Y6V0; [2]) was “below the threshold”, the pKd (NHERF3_4, Q5T2W1; [2]) was 3.51 and the pKd (MAGI2_6, Q86UL8; [2]) was “below the threshold”. For the same binder, the pKd (PARD3B_1, Q8TEW8; [2]) was “below the threshold”, the pKd (LAP2, Q96RT1; [2]) was 3.89 and the pKd (FRMPD2_1, Q68DX3; [2]) was 3.88. The pKd (LNX2_3, Q8N448; [2]) was “below the threshold”, the pKd (DLG4_2, P78352; [2]) was 4.95 and the pKd (GRIP1_7, Q9Y3R0; [2]) was “below the threshold”. The pKd (MAGI2_3, Q86UL8; [2]) was “below the threshold”, the pKd (GRIP2_5, Q9C0E4; [2]) was “below the threshold” and the pKd (SNTB1, Q13884; [2]) was 4.15. For the same binder, the pKd (ARHGEF11, O15085; [2]) was 4.3, the pKd (IL16_3, Q14005; [2]) was “below the threshold” and the pKd (ARHGAP21, Q5T5U3; [2]) was 3.92.

B4: SCN8A, Q9UQD0 (peptide)
chain: RQKEVRESKC
For B4, the pKd (Inadl_3, Q8NI35; [2]) was “below the threshold”, the pKd (DFNB31_3, Q9P202; [2]) was 3.95 and the pKd (SIPA1L2, Q9P2F8; [2]) was “below the threshold”. The pKd (MPDZ_10, O75970; [2]) was 3.8, the pKd (GRIP1_2, Q9Y3R0; [2]) was “below the threshold” and the pKd (LNX1_3, Q8TBB1; [2]) was “below the threshold”. The pKd (MPDZ_12, O75970; [2]) was “below the threshold”, the pKd (MAST1, Q9Y2H9; [2]) was 4.34 and the pKd (IL16_4, Q14005; [2]) was 3.68. The pKd (PCLO, Q9Y6V0; [2]) was “below the threshold”, the pKd (NHERF3_4, Q5T2W1; [2]) was “below the threshold” and the pKd (MAGI2_6, Q86UL8; [2]) was “below the threshold”. For the same binder, the pKd (PARD3B_1, Q8TEW8; [2]) was “below the threshold”, the pKd (LAP2, Q96RT1; [2]) was “below the threshold” and the pKd (FRMPD2_1, Q68DX3; [2]) was “below the threshold”. For the same binder, the pKd (LNX2_3, Q8N448; [2]) was “below the threshold”, the pKd (DLG4_2, P78352; [2]) was 3.52 and the pKd (GRIP1_7, Q9Y3R0; [2]) was “below the threshold”. The pKd (MAGI2_3, Q86UL8; [2]) was 3.51, the pKd (GRIP2_5, Q9C0E4; [2]) was “below the threshold” and the pKd (SNTB1, Q13884; [2]) was 4.99. For the same binder, the pKd (ARHGEF11, O15085; [2]) was “below the threshold”, the pKd (IL16_3, Q14005; [2]) was “below the threshold” and the pKd (ARHGAP21, Q5T5U3; [2]) was “below the threshold”.
